# US20150274826A1 (ARCH ONCOLOGY, published 2015)
# Changes are numbered by the printed parent chain. Names and notes keep the numbering of the source.
# T1: dog CD47 (dog, UniProt A0A8I3PM61 19-310)
# T1 construct: also called CD47 on dog RBCs
# T1 sequence: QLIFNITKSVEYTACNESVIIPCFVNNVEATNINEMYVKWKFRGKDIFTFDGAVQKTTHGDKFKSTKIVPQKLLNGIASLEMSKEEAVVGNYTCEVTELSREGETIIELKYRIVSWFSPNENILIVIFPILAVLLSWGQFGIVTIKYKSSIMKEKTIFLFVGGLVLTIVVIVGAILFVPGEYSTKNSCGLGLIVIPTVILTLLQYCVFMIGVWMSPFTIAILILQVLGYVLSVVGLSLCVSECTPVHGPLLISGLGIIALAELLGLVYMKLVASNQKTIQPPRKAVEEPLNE
# T2: pig CD47 (pig, UniProt Q9GKE8 19-303)
# T2 construct: whole, on cells; also called CD47 on porcine RBCs
# T2 sequence (looked up): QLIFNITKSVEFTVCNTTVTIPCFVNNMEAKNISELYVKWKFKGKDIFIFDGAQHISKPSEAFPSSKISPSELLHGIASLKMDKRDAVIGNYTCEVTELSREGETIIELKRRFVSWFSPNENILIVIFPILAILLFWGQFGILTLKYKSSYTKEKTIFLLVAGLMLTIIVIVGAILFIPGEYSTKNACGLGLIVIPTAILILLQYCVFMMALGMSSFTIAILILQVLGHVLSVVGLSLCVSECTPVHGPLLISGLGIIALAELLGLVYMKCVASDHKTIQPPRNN
# T3: rat CD47 (rat, UniProt P97829 19-303)
# T3 construct: whole, on cells; also called CD47 on rat RBCs
# T3 sequence (looked up): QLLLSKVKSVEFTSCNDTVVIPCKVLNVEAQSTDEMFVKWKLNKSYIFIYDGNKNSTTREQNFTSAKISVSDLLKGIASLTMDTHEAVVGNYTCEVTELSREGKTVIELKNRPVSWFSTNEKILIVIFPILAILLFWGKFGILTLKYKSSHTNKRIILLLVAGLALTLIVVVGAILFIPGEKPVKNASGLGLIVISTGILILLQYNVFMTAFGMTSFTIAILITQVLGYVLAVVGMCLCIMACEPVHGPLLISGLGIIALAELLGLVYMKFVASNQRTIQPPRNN
# T4: mouse CD47 (mouse, UniProt Q61735 19-303)
# T4 construct: whole, on cells; also called CD47 on mouse RBCs; CD47 on 4T1 cells
# T4 sequence (looked up): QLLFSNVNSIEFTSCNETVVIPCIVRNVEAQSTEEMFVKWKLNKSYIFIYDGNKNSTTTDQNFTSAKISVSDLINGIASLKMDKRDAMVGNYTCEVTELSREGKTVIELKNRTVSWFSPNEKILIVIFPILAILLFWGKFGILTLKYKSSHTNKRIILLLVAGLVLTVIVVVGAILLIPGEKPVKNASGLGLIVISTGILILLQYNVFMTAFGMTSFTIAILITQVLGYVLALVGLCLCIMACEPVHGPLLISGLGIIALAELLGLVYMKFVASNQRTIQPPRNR
# B1: Clone 1 (pVxK7b-037-hum01-LC / pVxK7b-037-hum01-HC) (antibody, human IgG1, kappa)
# heavy: not shown
# light: DIVMTQTPLSLPVTPGEPASISCRSSQSLVHSNGNTYLHWYQQKPGKAPKLLIYKVSYRFSGVPDRFSGSGSGTDFTLKISRVEAEDVGVYYCSQNTHVPRTFGQGTKVEIKRTVAAPSVFIFPPSDEQLKSGTASVVCLLNNFYPREAKVQWKVDNALQSGNSQESVTEQDSKDSTYSLSSTLTLSKADYEKHKVYACEVTHQGLSSPVTKSFNRGEC
# notes: also called Cl 1
# B2: Clone 1.1 (hum01 IgG1 N297Q) (antibody)
# heavy: QVQLQESGPGLVKPSQTLSLTCTVSGYTFTNYYVFWVRQARGQRLEWIGDINPVNGDTNFNEKFKNRVTISADKSISTAYLQWSSLKASDTAMYYCARGGYTMDYWGQGTLVTVSSASTKGPSVFPLAPSSKSTSGGTAALGCLVKDYFPEPVTVSWNSGALTSGVHTFPAVLQSSGLYSLSSVVTVPSSSLGTQTYICNVNHKPSNTKVDKKVEPKSCDKTHTCPPCPAPELLGGPSVFLFPPKPKDTLMISRTPEVTCVVVDVSHEDPEVKFNWYVDGVEVHNAKTKPREEQYQSTYRVVSVLTVLHQDWLNGKEYKCKVSNKALPAPIEKTISKAKGQPREPQVYTLPPSR
# light: B1 light
# notes: Fc mutant of Clone 1, IgG1 N297Q; also called Cl 1.1
# B3: Clone 13 (pVxK7b-037-hum13-LC / pVxK7b-037-hum13-HC) (antibody, human IgG1, kappa)
# heavy: not shown
# light: B1 light
# notes: also called Cl 13
# B4: Clone 17.1 (hum17 IgG1 N297Q) (antibody)
# heavy: EVQLVQSGAEVKKPGATVKISCKVSGYTFTNYYVFWIRQPPGKGLEWIGDINPVNGDTNFNEKFKNRVTITADKSTSTAYMELSSLRSEDTAVYYCARGGYTMDYWGQGTLVTVSSASTKGPSVFPLAPSSKSTSGGTAALGCLVKDYFPEPVTVSWNSGALTSGVHTFPAVLQSSGLYSLSSVVTVPSSSLGTQTYICNVNHKPSNTKVDKKVEPKSCDKTHTCPPCPAPELLGGPSVFLFPPKPKDTLMISRTPEVTCVVVDVSHEDPEVKFNWYVDGVEVHNAKTKPREEQYQSTYRVVSVLTVLHQDWLNGKEYKCKVSNKALPAPIEKTISKAKGQPREPQVYTLPPSR
# light: AIQLTQSPSSLSASVGDRVTITCRSSQSLVHSNGNTYLHWYQQKPGQAPRLLIYKVSYRFSGVPDRFSGSGSGTDFTLKISRVEAEDVGVYYCSQNTHVPRTFGQGTKVEIKRTVAAPSVFIFPPSDEQLKSGTASVVCLLNNFYPREAKVQWKVDNALQSGNSQESVTEQDSKDSTYSLSSTLTLSKADYEKHKVYACEVTHQGLSSPVTKSFNRGEC
# notes: IgG1 N297Q
# B5: Clone 17.2 (hum17 IgG4 S228P L235E) (antibody)
# heavy: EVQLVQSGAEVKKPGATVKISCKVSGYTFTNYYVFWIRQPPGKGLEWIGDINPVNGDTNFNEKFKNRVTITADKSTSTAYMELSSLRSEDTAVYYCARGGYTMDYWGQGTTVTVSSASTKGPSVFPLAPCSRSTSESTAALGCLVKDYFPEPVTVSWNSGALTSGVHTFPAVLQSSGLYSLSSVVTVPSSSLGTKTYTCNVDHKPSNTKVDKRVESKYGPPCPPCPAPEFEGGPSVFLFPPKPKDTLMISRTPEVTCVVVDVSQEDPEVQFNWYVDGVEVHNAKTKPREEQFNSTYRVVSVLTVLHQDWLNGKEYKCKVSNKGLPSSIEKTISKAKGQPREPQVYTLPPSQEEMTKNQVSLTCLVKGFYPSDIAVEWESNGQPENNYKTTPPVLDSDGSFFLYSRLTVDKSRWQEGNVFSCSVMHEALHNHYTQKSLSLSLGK
# light: B4 light
# notes: IgG4 S228P L235E
# B6: Clone 8.2 (hum08 IgG4 S228P L235E) (antibody)
# heavy: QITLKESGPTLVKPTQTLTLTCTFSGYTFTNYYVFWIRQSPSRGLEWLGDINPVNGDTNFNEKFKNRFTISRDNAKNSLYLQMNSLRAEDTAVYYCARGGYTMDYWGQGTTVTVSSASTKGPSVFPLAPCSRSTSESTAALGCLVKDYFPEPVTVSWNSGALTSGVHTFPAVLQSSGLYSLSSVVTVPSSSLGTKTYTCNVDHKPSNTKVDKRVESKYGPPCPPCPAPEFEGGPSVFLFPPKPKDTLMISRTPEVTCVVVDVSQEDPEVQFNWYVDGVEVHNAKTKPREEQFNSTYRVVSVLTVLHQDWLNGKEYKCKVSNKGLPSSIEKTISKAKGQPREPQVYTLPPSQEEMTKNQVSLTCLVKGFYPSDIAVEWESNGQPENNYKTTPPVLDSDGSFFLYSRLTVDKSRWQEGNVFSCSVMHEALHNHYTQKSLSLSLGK
# light: B1 light
# notes: IgG4 S228P L235E
# B7: Clone 23.1 (hum23 IgG1 N297Q) (antibody)
# heavy: QVQLQESGPGLVKPSQTLSLTCTVSGYTFTNYYVFWVRQARGQRLEWIGDINPVNGDTNFNEKFKNRLTISKDTSKNQVVLTMTNMDPVDTATYYCARGGYTMDYWGQGTLVTVSSASTKGPSVFPLAPSSKSTSGGTAALGCLVKDYFPEPVTVSWNSGALTSGVHTFPAVLQSSGLYSLSSVVTVPSSSLGTQTYICNVNHKPSNTKVDKKVEPKSCDKTHTCPPCPAPELLGGPSVFLFPPKPKDTLMISRTPEVTCVVVDVSHEDPEVKFNWYVDGVEVHNAKTKPREEQYQSTYRVVSVLTVLHQDWLNGKEYKCKVSNKALPAPIEKTISKAKGQPREPQVYTLPPSR
# light: B1 light
# notes: IgG1 N297Q
# B8: Clone 23.2 (hum23 IgG4 S228P L235E) (antibody)
# heavy: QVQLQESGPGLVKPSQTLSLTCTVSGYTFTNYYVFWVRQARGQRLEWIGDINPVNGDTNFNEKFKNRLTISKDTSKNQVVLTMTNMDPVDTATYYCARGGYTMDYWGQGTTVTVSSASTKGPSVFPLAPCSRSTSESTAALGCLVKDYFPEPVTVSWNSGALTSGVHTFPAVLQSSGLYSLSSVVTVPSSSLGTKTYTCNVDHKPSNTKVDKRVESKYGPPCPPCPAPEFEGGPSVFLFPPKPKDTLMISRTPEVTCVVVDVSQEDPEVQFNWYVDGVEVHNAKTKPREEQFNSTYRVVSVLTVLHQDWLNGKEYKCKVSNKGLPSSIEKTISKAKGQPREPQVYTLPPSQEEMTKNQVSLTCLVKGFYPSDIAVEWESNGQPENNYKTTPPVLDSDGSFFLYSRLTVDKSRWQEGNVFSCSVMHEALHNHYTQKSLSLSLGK
# light: B1 light
# notes: IgG4 S228P L235E
# B9: Clone 20.1 (hum20 IgG1 N297Q) (antibody)
# heavy: QITLKESGPTLVKPTQTLTLTCTFSGYTFTNYYVFWVRQAPGQGLEWMGDINPVNGDTNFNEKFKNRVTITADKSTSTAYMELSSLRSEDTAVYYCARGGYTMDYWGQGTLVTVSSASTKGPSVFPLAPSSKSTSGGTAALGCLVKDYFPEPVTVSWNSGALTSGVHTFPAVLQSSGLYSLSSVVTVPSSSLGTQTYICNVNHKPSNTKVDKKVEPKSCDKTHTCPPCPAPELLGGPSVFLFPPKPKDTLMISRTPEVTCVVVDVSHEDPEVKFNWYVDGVEVHNAKTKPREEQYQSTYRVVSVLTVLHQDWLNGKEYKCKVSNKALPAPIEKTISKAKGQPREPQVYTLPPSR
# light: B1 light with Q42L, K47Q, A48S, K50Q
# notes: IgG1 N297Q
# B10: Clone 20.2 (hum20 IgG4 S228P L235E) (antibody)
# heavy: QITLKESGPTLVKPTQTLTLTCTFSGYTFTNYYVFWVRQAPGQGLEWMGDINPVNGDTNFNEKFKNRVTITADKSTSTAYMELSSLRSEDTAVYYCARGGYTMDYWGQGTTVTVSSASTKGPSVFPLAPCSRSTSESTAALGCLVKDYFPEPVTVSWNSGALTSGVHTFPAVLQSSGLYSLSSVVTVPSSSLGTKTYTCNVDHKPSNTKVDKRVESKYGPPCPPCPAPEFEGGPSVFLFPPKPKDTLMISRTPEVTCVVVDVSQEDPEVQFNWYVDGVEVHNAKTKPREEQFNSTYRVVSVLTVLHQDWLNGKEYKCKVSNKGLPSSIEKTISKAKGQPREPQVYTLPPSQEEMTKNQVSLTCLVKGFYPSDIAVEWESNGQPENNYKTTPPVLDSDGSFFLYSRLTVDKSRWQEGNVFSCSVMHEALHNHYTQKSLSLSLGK
# light: B1 light with Q42L, K47Q, A48S, K50Q
# notes: IgG4 S228P L235E
# Target: T5, human CD47 (human, UniProt Q08722 19-323)
# T5 construct: whole, on cells; also called CD47 on human RBCs; CD47 on OV10 cells
# Experiment: flow cytometry on human RBCs, apparent Kd, non-linear fit
# Procedure: (§1) RBCs are incubated for 60 minutes on ice with tissue culture supernatants containing the secreted humanized antibodies at a concentration of 10 ng/ml in a solution of phosphate buffered saline, pH 7.2, 2.5 mM EDTA (PBS+E), or with various concentrations of purified antibodies. Cells are then washed with cold PBS+E, and incubated for an additional hour on ice with FITC labeled donkey anti-human antibody (Jackson Immuno Research Labs, West Grove, Pa.; Catalogue #709-096-149) in PBS+E. Cells are then washed with PBS+E, and antibody binding is analyzed using a BD FACSAria Cell Sorter (Becton Dickinson) or a C6 Accuri Flow Cytometer (Becton Dickinson). Antibody binding is quantitated by comparison of mean fluorescence values relative to that of chimeric antibody >VxP037-01LC (SEQ ID NO:7))/>VxPO37-01HC (SEQ ID NO:57). The mean fluorescence value for each antibody is divided by the mean fluorescence value for the chimeric antibody.
# T5 sequence (Q08722 19-323): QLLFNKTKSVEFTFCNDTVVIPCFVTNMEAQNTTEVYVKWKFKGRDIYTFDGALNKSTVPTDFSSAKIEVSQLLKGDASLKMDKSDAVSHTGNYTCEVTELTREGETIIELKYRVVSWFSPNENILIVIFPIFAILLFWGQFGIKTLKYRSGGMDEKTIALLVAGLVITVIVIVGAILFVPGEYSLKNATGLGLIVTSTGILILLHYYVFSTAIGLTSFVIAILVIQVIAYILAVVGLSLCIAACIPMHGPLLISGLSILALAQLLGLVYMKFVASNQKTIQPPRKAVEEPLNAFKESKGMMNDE
row,Kd [nM],Binder
1,1.51,B1
2,2.04,B2
3,0.58,B3

# Target: T5, human CD47
# Experiment: cell-based ELISA on human OV10 cells, apparent Kd
# Procedure: (§2) OV10 cells are grown in IMDM medium containing 10% heat inactivated fetal bovine serum (BioWest; S01520) and 4T1 cells are grown in RMPI medium containing 10% heat inactivated fetal bovine serum (BioWest; S01520). One day before assay, 3×10⁴ cells are plated in 96 well cell bind plates (Corning #3300, VWR #66025-626) so that they are 95-100% confluent at the time of assay. Cells are washed and various concentrations of purified antibodies added in either IMDM or RPMI at 37° C. for 1 hour in […]. Cells are then washed with media and incubated for an additional hour at 37° C. with HRP labeled secondary anti-human antibody (Promega) diluted 1/2500 in media. Cells are washed three times with PBS, and the peroxidase substrate 3,3′,5,5′-tetramethylbenzidine is added (Sigma; Catalog #T4444). Reactions are terminated by the addition of HCl to 0.7N, and absorbance at 450 nm is determined using a Tecan model Infinite M200 plate reader. The apparent binding affinities of these clones to human and mouse cells is determined by non-linear fits (Prism GraphPad software). […] Agglutination of human RBCs is assessed following incubation of human RBCs with various concentrations of humanized blocking only clones. Blood is diluted (1:50) and washed 3 times with PBS/EDTA/BSA. RBCs are added to U-bottomed 96 well plates with equal volumes of the antibodies (75 μl) and incubated for 3 hrs at 37° C. and overnight at 4° C.
row,Kd [nM],Binder
1,0.0855,B4
2,0.121,B5
3,0.121,B6
4,0.0996,B7
5,0.195,B8
6,0.121,B9
7,0.148,B2
8,0.114,B10

# Target: T5, human CD47
# Experiment: flow cytometry on human RBCs, non-linear fit of median fluorescence
# Procedure: as §1
row,Kd [µg/mL],Binder
1,0.226,B1
2,0.307,B2
3,0.0864,B3

# Target: T1, dog CD47
# Experiment: flow cytometry on RBCs, CHO supernatant 10 ng/ml
# Procedure: as §1
row,mean fluorescence relative to chimeric antibody [ratio],Binder
1,1,B1
2,1,B3

# Target: T2, pig CD47
# Experiment: flow cytometry on RBCs, CHO supernatant 10 ng/ml
# Procedure: as §1
row,mean fluorescence relative to chimeric antibody [ratio],Binder
1,1.3,B1
2,1.4,B3

# Target: T3, rat CD47
# Experiment: flow cytometry on RBCs, CHO supernatant 10 ng/ml
# Procedure: as §1
row,mean fluorescence relative to chimeric antibody [ratio],Binder
1,2.7,B1
2,3.1,B3

# Target: T5, human CD47
# Experiment: flow cytometry on RBCs, CHO supernatant 10 ng/ml
# Procedure: as §1
row,mean fluorescence relative to chimeric antibody [ratio],Binder
1,1.1,B1
2,1.2,B3

# Target: T4, mouse CD47
# Experiment: flow cytometry on RBCs, CHO supernatant 10 ng/ml
# Procedure: as §1
row,mean fluorescence relative to chimeric antibody [ratio],Binder
1,1.7,B1
2,1.3,B3

# Target: T4, mouse CD47
# Experiment: cell-based ELISA on mouse 4T1 cells, apparent Kd
# Procedure: as §2
row,Kd [nM],Binder
1,0.198,B4
2,0.147,B5
3,0.0949,B6
4,0.0922,B7
5,0.192,B8
6,0.237,B9
7,0.132,B2
8,0.354,B10
